Here are results for three substances from patent publication US20200147244A1.

The term EC50 denotes the concentration at which the effect is half-maximal.

Assay [1] has as its target recombinant PSMA protein (human) (UniProt Q04609). The experiment in a line: ELISA on PSMA. (In an ELISA, binding on a coated surface is turned into a signal by an enzyme label.)
The target in assay [2] is PSMA-Myc-Flag (Origene) (human) (UniProt Q04609). The experiment in a line: ELISA, PSMA immobilized by its Myc-Flag tag, PCC titrated in solution.
Chain of PSMA-Myc-Flag (Origene) (human) (Q04609 whole entry): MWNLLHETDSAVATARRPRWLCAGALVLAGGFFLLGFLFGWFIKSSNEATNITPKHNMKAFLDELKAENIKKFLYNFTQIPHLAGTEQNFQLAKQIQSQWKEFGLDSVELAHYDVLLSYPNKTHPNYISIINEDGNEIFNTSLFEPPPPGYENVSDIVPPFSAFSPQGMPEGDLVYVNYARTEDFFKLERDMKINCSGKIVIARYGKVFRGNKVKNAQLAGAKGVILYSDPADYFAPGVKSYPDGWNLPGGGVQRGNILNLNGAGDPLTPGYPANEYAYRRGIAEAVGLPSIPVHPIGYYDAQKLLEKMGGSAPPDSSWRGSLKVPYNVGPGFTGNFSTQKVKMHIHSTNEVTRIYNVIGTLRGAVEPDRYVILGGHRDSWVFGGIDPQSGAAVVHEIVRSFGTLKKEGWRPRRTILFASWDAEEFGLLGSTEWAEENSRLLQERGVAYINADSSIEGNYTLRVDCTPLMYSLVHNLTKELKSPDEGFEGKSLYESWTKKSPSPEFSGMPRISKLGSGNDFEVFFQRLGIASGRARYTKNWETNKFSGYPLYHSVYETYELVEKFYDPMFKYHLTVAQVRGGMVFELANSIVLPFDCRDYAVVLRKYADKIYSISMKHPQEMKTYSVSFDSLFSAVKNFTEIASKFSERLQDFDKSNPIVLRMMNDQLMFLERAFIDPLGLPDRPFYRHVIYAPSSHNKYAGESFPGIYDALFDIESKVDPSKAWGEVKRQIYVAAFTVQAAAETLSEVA
The target in assay [3] is His-PSMA (Sino Biological) (human) (UniProt Q04609). The experiment in a line: ELISA, PSMA immobilized by its His tag, PCC titrated in solution.
Chain of His-PSMA (Sino Biological) (human) (Q04609 44-750 limits assumed): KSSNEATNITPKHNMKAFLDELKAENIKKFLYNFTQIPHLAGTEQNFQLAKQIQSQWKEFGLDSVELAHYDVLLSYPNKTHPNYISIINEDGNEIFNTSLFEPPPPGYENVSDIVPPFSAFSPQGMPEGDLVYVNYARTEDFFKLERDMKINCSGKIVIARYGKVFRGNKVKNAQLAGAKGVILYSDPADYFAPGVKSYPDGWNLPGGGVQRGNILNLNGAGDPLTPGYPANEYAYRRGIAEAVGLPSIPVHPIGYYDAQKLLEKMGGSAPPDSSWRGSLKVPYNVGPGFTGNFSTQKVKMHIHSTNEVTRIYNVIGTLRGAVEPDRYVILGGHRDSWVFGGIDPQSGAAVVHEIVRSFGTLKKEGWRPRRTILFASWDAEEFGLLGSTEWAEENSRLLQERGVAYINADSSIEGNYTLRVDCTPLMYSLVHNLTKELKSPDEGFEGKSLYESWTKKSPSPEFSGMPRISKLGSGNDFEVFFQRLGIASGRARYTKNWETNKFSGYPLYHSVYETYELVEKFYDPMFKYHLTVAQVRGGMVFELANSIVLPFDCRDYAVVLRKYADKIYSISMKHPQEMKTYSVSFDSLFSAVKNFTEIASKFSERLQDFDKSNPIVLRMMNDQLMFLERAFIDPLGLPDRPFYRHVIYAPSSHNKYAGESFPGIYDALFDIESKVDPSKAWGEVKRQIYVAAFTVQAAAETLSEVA

Chain of recombinant PSMA protein (human) (Q04609 44-750 limits assumed): as above

For hnwlG (SEQ ID NO:19) (peptide), in assay [1], the EC50 came out at 5.58 µM.
Regarding hreww (SEQ ID NO:10) (peptide), the concentration for a half-maximal effect (EC50) in assay [2] amounted to 0.662 µM; in assay [3], 0.872 µM.
As to lfkhh (SEQ ID NO:16) (peptide), the 50% effective concentration (EC50) in assay [1] was 0.0086 µM.
